Consider one substance from patent US20180118789A1.

Test [1] deals with mouse melanocortin 3 receptor (mouse) (UniProt P33033). The test is described as follows: cell-based or functional assay.
Test [2] has as its target mouse melanocortin 1 receptor (mouse) (UniProt Q01727). Briefly: cell-based or functional assay.

Chain of mouse melanocortin 1 receptor (mouse) (Q01727 whole entry): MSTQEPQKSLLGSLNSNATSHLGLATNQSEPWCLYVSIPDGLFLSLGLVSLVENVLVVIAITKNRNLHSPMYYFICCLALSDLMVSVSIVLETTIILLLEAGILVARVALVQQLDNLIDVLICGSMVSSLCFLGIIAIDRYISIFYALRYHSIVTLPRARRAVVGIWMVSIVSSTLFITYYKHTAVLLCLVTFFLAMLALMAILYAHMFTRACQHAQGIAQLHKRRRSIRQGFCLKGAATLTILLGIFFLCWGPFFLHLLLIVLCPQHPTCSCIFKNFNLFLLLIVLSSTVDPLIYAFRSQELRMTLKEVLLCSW
Chain of mouse melanocortin 3 receptor (mouse) (P33033 whole entry): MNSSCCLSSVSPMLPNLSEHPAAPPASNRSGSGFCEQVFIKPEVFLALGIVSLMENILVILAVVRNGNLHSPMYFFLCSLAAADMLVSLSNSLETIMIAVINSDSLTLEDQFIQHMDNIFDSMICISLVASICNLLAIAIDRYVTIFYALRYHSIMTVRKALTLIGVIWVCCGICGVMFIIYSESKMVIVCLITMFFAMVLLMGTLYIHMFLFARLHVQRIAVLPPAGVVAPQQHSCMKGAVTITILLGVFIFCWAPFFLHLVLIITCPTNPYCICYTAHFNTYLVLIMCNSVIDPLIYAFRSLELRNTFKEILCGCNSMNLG

For “NDP-MSH (4-Norleucine-7-D-Phenylalanine), Ac-Ser-Tyr-Ser-Nle-Glu-His-DPhe-Arg-Trp-Gly-Lys-Pro-Val-NH2 (peptide)”, the EC50 (nM), agonist, cAMP AlphaScreen in test [1] came out at 0.09 nM; in test [2], 0.015 nM.
